Where no end group is shown, it is not given here. (CH2CH2O)27 = 27 units of polyethylene glycol linked to the C-terminal Asp, ending in NH2
T1: human CCR3 on cells (AML14.3D10-CCR3 cells, blood eosinophils, 4DE4-CCR3 cells) (human, UniProt P51677 1-355)
T1 sequence (looked up): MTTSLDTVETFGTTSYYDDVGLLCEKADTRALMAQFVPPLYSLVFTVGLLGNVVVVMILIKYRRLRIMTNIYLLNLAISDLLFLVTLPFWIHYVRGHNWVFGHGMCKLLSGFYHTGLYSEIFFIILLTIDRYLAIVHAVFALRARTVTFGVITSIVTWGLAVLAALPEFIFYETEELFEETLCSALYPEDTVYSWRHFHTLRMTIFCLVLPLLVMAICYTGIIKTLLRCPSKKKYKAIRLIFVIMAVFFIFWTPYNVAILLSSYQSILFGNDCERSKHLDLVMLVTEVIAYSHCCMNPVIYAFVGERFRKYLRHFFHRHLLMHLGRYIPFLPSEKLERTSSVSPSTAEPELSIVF

T2: human CCR3 in membrane preparations, 13C-reductively methylated (CCR3-K-di13CH3) (human, UniProt P51677 1-355, lysines reductively methylated with 13C (K-di13CH3))
T2 construct: also called CCR3 membrane preps; C-C chemokine receptor 3
T2 sequence (looked up): T1 sequence (looked up)

B1: recombinant human CCL11 (ligand)
chain: not shown
notes: also called eotaxin; eotaxin-1

Tests used:
[1] = target: T1, human CCR3 on cells (AML14.3D10-CCR3 …); assay: cell-based or functional assay
[2] = target: T2, human CCR3 in membrane preparations, …; assay: NMR, 13C HSQC of 13C-reductively methylated CCR3 membrane preps (0.25 mg/ml) with 1 µM CCL11
Procedure: FIG. 6A to FIG. 6E show NMR evaluation of the binding of R3-2-1 and CCL11/eotaxin-1 to CCR3 membrane preparations. ¹³C HSQC spectra of ¹³C-reductively methylated CCR3 membrane preps (0.25 mg/ml) were recorded with 1 μM CCL11 and 10 μM R321. FIG. 6A, reductively methylated CCR3 (CCR3-K-di¹³CH3) (gray) and reductively methylated CCR3 with CCL11 (black); FIG. 6B, reductively methylated CCR3 (CCR3-K-di¹³CH3) (gray) and reductively methylated CCR3 with R321 (black); FIG. 6C, reductively methylated CCR3 (CCR3-K-di¹³CH3) (gray) and reductively methylated CCR3 with CCL11 and R321 (black); FIG. 6D, reductively methylated CCR3 with CCL11 (gray) and reductively methylated CCR3 with CCL11 and R321 (black); and FIG. 6E, reductively methylated CCR3 with R321 (gray) and reductively methylated CCR3 with CCL11 and R321 (black) show chemical shift changes indicative of binding. Black arrows indicate the differences in chemical shifts.

Row | Binder | IC50 of inhibition of CCL11/Eotaxin-1 (12 nM)-induced chemotaxis, AML14.3D10-CCR3 cells [1] | IC50 of inhibition of CCL11/Eotaxin-1 (12 nM)-induced chemotaxis, blood eosinophils [1] | IC50 of inhibition of CCL24/Eotaxin-2 (20 nM)-induced chemotaxis, AML14.3D10-CCR3 cells [1] | IC50 of inhibition of CCL24/Eotaxin-2 (20 nM)-induced chemotaxis, blood eosinophils [1] | IC50 of inhibition of CCL26/Eotaxin-3 (100 nM)-induced chemotaxis, AML14.3D10-CCR3 cells [1] | IC50 of inhibition of CCL26/Eotaxin-3 (100 nM)-induced chemotaxis, blood eosinophils [1] | binding result [2]
1 | LLFLVTLPFWIHYVRGHNWVFGHDDD-{(CH2CH2O)27-NH2} [R3-2-1 peptide (CCR3 second transmembrane helix peptide analog, PEG27, C-terminal amide)] | 210 nM | 110 nM | 140 nM | 80 nM | 100 nM | 160 nM | –
2 | B1 | – | – | – | – | – | – | binds
